Measured values as given in paper PMC2855102.

Key:
[1] = target: actin (thin filament, F-actin) of mouse left ventricular myocardium (mouse (endogenous in C57/BL6 left ventricle)) (UniProt P68033)
[2] = target: actin (thin filament, F-actin) of mouse left ventricular myocardium (mouse (endogenous in C57/BL6 left ventricle)) (UniProt P68033); remark: listed apart in the source
[3] = target: actin (thin filament, F-actin) of mouse left ventricular myocardium (mouse (endogenous in C57/BL6 left ventricle)) (UniProt P68033); remark: listed apart in the source
[4] = target: actin (thin filament, F-actin) of mouse left ventricular myocardium (mouse (endogenous in C57/BL6 left ventricle)) (UniProt P68033); remark: listed apart in the source
[5] = target: actin (thin filament, F-actin) of bovine myocardium (bovine (endogenous in left ventricle and left atrium)) (UniProt Q3ZC07)
[6] = target: actin (thin filament, F-actin) of bovine myocardium (bovine (endogenous in left ventricle and left atrium)) (UniProt Q3ZC07); remark: listed apart in the source
[7] = target: actin (thin filament, F-actin) of bovine myocardium (bovine (endogenous in left ventricle and left atrium)) (UniProt Q3ZC07); remark: listed apart in the source

titin (connectin) of mouse left ventricular myocardium, predominately the N2B isoform (natural protein)
decrease of hysteresis (area of the force-length loop of stretch-release cycles) of skinned MLV after actin extraction with gelsolin, at SL 2.25 μm [1]: 33% | reduction of titin-based passive tension of skinned MLV after thin filament (actin) extraction with gelsolin, at SL 2.25 μm (calculated from total tension with titin's fractional contribution) [2]: 44% | decrease of passive stiffness/tension during stretch of skinned MLV with both S100A1 (1 μg/μL, Sigma) and calcium (pCa 6.8), relative to pCa 9.0; stretch speeds 0.1 and 2.0 length/sec [3]: < 20% | reduction of total passive tension during stretch of skinned MLV after thin filament (actin) extraction with gelsolin, at SL 2.25 μm [4]: 22%

titin of bovine left ventricular myocardium, a mixture of the N2B and N2BA isoforms (natural protein)
decrease of hysteresis (area of the force-length loop of stretch-release cycles) of skinned BLV after actin extraction with gelsolin, at SL 2.25 μm [5]: 52% | reduction of titin-based passive tension of skinned BLV after thin filament (actin) extraction with gelsolin, at SL 2.25 μm (calculated from total tension with titin's fractional contribution) [6]: 20% | reduction of total passive tension during stretch of skinned BLV after thin filament (actin) extraction with gelsolin, at SL 2.25 μm [7]: 17%

titin of bovine left atrial myocardium, mainly the N2BA isoform (natural protein)
decrease of hysteresis (area of the force-length loop of stretch-release cycles) of skinned BLA after actin extraction with gelsolin, at SL 2.25 μm [5]: 35% | reduction of titin-based passive tension of skinned BLA after thin filament (actin) extraction with gelsolin, at SL 2.25 μm (calculated from total tension with titin's fractional contribution) [6]: 12% | reduction of total passive tension during stretch of skinned BLA after thin filament (actin) extraction with gelsolin, at SL 2.25 μm [7]: 10%
